The values that follow come from IntAct's records for PubMed 9499404.

First the molecules themselves.
B1: Cell division control protein 53 (Saccharomyces cerevisiae), Q12018 (parent)
chain: MSETLPRSDDLEATWNFIEPGINQILGNEKNQASTSKRVYKILSPTMYMEVYTAIYNYCVNKSRSSGHFSTDSRTGQSTILVGSEIYEKLKNYLKNYILNFKQSNSETFLQFYVKRWKRFTIGAIFLNHAFDYMNRYWVQKERSDGKRHIFDVNTLCLMTWKEVMFDPSKDVLINELLDQVTLGREGQIIQRSNISTAIKSLVALGIDPQDLKKLNLNVYIQVFEKPFLKKTQEYYTQYTNDYLEKHSVTEYIFEAHEIIKREEKAMTIYWDDHTKKPLSMALNKVLITDHIEKLENEFVVLLDARDIEKITSLYALIRRDFTLIPRMASVFENYVKKTGENEISSLLAMHKHNIMKNENANPKKLALMTAHSLSPKDYIKKLLEVHDIFSKIFNESFPDDIPLAKALDNACGAFININEFALPAGSPKSATSKTSEMLAKYSDILLKKATKPEVASDMSDEDIITIFKYLTDKDAFETHYRRLFAKRLIHGTSTSAEDEENIIQRLQAANSMEYTGKITKMFQDIRLSKILEDDFAVALKNEPDYSKAKYPDLQPFVLAENMWPFSYQEVEFKLPKELVPSHEKLKESYSQKHNGRILKWLWPLCRGELKADIGKPGRMPFNFTVTLFQMAILLLYNDADVLTLENIQEGTSLTIQHIAAAMVPFIKFKLIQQVPPGLDALVKPETQFKLSRPYKALKTNINFASGVKNDILQSLSGGGHDNHGNKLGNKRLTEDERIEKELNTERQIFLEACIVRIMKAKRNLPHTTLVNECIAQSHQRFNAKVSMVKRAIDSLIQKGYLQRGDDGESYAYLA
partner: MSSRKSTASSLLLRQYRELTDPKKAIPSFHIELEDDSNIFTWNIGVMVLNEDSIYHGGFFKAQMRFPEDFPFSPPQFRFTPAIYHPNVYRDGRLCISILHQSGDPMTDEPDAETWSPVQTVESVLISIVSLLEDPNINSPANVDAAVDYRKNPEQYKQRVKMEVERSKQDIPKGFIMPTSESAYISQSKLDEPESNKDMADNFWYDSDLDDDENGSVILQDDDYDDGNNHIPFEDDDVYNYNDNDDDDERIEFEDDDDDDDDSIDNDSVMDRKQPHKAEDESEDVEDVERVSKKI

In this test the parent is B1. The conditions noted are these: with ubc3_yeast CDC34, P14682.
For R488C, the “effect of a mutation on the interaction” value is on record as “disrupting interaction”.
